In patent US20250388664A1:

How the values were obtained:
[1] = molecular target: Aβ1-40 monomer (UniProt P05067); assay: inhibition ELISA: antibody at a fixed concentration pre-incubated with titrated Aβ1-40 monomer in solution, then on an AβpE3-40 coat; the x axis is the Aβ1-40 concentration
[2] = molecular target: AβpE11-40 monomer (UniProt P05067); assay: inhibition ELISA: antibody at a fixed concentration pre-incubated with titrated AβpE11-40 monomer in solution, then on an AβpE3-40 coat; the x axis is the AβpE11-40 concentration
AβpE11-40 monomer, sequence (P05067 682-711): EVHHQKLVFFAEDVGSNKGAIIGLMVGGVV

Aβ1-40 monomer, sequence (P05067 672-711): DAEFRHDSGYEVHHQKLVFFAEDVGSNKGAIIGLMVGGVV

IC50 (read off the curve) [1]: 20 nM
IC50 (read off the curve) [2]: 20 nM
Substance: 4G8 (antibody)
